This experiment concerns the target Toll-like receptor 5 (TLR5), constitutively expressed on Caco-2 cells (UniProt O60602). The experiment in a line: cell-based or functional assay.

A value given as a limit tells only on which side of the number the result lay.

Sequence of UniProt O60602 (O60602 21-858 limits assumed): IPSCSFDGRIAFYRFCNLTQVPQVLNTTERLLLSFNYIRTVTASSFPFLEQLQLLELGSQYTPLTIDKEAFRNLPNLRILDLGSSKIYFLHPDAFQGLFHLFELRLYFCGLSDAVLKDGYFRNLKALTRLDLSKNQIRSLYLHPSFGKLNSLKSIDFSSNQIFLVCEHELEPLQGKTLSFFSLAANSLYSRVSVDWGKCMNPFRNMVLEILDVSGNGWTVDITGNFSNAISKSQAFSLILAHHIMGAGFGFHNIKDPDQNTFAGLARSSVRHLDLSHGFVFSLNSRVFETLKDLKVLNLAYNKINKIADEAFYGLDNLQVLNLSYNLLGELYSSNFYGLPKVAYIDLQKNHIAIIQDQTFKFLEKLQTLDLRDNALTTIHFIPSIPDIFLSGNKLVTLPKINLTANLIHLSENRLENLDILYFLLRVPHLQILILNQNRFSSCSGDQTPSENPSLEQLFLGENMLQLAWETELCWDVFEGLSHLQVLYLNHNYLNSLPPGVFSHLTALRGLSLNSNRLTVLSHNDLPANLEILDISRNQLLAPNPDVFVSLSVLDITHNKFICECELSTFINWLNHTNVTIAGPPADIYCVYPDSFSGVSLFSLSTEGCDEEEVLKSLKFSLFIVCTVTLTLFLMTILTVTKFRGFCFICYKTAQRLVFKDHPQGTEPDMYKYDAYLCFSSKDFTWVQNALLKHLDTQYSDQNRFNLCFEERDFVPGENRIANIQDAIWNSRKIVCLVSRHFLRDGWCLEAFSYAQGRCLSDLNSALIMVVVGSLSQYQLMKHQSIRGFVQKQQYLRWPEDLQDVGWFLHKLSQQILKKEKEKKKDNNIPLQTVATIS

As to “flagellin protein FliC from Salmonella enterica J341, recombinant, with C-terminal 6-histidine tag (from UniProt P06177 1-505) (ligand)”, the dose at which the stimulating activity (IL-8 and MCP-1 release of Caco-2 cells) reached saturation is more than 1000 ng/mL.

The record behind these values is patent US20110230643A1.
